Source: a protein production outcome set (Wang et al. 2014)

Assay: label from the status in PepcDB records

FFSNAEVAERLAYPQLIEALRIGLAKPCSAPLRNCHALPAQASLLQMPVWQAGAGIGVKLVTVFPGNGARGLPAVAAVFALFDGEDGRPLALLEASELTARRTACSSALAADYLARDDARRLLVVGCGTLAAHMVRAHACVRDYRHIDIWGRDPAKAAALAARLREEGYPARAADGLRAAVEAADCVSCVTTSREALVRGAWLKPGVHLDLVGAFLPSMRETDVLAVARARVVVDTRAGALEEAGDLLQAIAEGAIGREAISTELRDLLSGAGRRGDPGEITLFKSVGYALEDLVAARRVV
protein production: failed

MGTPVVWEGNIGNPPEHKSFPNGNNEPRQLLRLNVMFDNSIPDGSGGYKDRGGFWANVEWWHPDAERFAQLFSKGMRVVVTGRAIMDTWKDKETGDDVWALKVEANRVAILPHRVNQVTMTQSNNTGQRQNAQQNNRPERQQNSAQQPGQHTDDLSHYGNGFDDDIPVLEHHHHHH
protein production: not failed

MEGSQQTITSKQLVRMLKDASRGSKGKGSGEMKFCFLIGAGASISSGIPSGAKLAWDWLQQIKEDCDGEDFEDWKIEIKMPDQHIEERVGEFYPEIYEKRFGHAPETGYDYIRGLMEGREPSLGYLILANIMVREKHNVVITTNFDNLLEDAIRTYTKEKPFIAGHEALADYVPKRSDRPIILKLHRDLFLQPFSDQLNTDILQAAWESILGKFLSDYHLIVLGYGGNDGSLMNYLLKLKNRKPIYWCVRNTDKATSKSLWNTLSPKAKRLLKNDGYLVPIDDFDRFMYDCYAALGYKFLEGIEKIEKPKSIHEILKPNYARIESIQTQLRQLSQTEEELSKESFQSIKSFLPDSWMWILKANQEKDIDKKDKIYREGIAKYPQDANLLGDYADFLCDICHDYDRAEAYYKRALEADPNHANTLGNYALFLKDVRHDYDQAEAYYKRALAADPNHANNLGNYANFLYNIRCDYDQAETYYKKALEADPNHANTLGNYANFLCDIRHDYDQAEGYYKKALEADPKNAITLGNYALFLNDIRHAYDQAEAYYKRALEVDPKSANKLGNYAHFLITCRGDFKRADSLIQQAFENADNDEETKPLQAKLWFYRYAHYYEEWGAEAEKELAALLNVGAKSIGWNLAPDIELARKNKHPHIEQVEAFAKALTEKAQ
protein production: failed

MTSVSGCGSVSLITNRSAFLGNGLQHRAVFLKPWSSSSLQSRSMVVEAKTKTSSEDRIARHSRIRKKVNGTTERPRLCVFRSNKHLYVQVIDDTKMHTLASASTKQKPISEEFDYTSGPTIEVAKKVGEVIAKSCLEKGITKVAFDRGGYPYHGRIEALAAAAREHGLQF
protein production: failed

MRSVVSFNEGWSFHEGFGQRLLETFDTAKSVSLPHTAVELPFSYFDETSYQRAFTYQKVLRWLPEFEGREVSLVFDAAMADSVVYLNGEEIIAHKDGYTPFEARLTGKLVKGENLVTVKIDGSENPDIPPFGGRIDYLTYAGIYRDVWLKVTDPVSIRNLKIETTDVLRPEKSATIRVDIANPEGRSFSATVTATLKQADGTVVATAATETIGSRTTLSFGGLTGIALWDITDPKLYDVTVELRTEHGSDRISTRFGFRTAEFTPEGFLLNGKPLKLRGLNRHQAFPYVGYAAGRSAQERDADIMKTVLKCNIVRTSHYPQSKWFLDRCDAIGLLVFEEIPGWQHIGDADWQQESIKNVRRMIERDWNHPSIIIWGVRINESQDDHDFYAETNRLARELDSTRQTGGVRYLTESELLEDVYTMNDFILGNEELPGANRPRTALRAQQENTGLSHKVPYLITEFNGHMHPTKIYDQEQRQAEHVRRHLEVLNAAYGDPDISGAIGWCMFDYNTHKDFGSGDRICYHGVMDMFREPKFAAYAYISQCDPSEEIVMKPVTFWARGERNIGGVLPLIILTNCDEVELQYGALSKRIGPDRENYPHLPHPPVVLDHRHFTADELGTWGLEWIDGTFTGYIGGEPVASLTLAADPLPTTLEVVADSSTLRARERDSTRVIIRALDQRGQRLPFMNDSISLKVHGPARIVGPTNVPLQGGTAGFWLEATGFTGEITVEAISTRFAPVTLGVTAA
protein production: failed

MEYDYLVIAGYFALMVAISLLFKKMASNSTSDYFRGGGKMLWWMVGATAFMTQFSAWTFTGAAGKAFNDGFAVLAVFVGNMVAYVFAYFYFARRFRQMRVDTPTEGVKRRFGNTNEQFFTWVIIPLSVINAGVWLNGLGVFASAVFNADIVTTIWVTGLAVLAISLLSGAWGVVASDFIQTLVVAVISIACAAVALYVVGGPGEIVENFPGGFIMGPDMNYPLLLVCTFIFFVVKQLQSINNMQESYRFLNAKDSKNASKAALMALVMMLFGAVIWFIPPWASAILYPDAATQYSSLGAKASDAVYLVFARETMPLGTVGLLMAGLFAATMSSMDSALNRNSGIFVRSFYSNIVRKGQASDKELLRAGQIACLVNGILVIMMAQFFNSLKHLSLFDLMMQVATLLQSPILVPLFLGIIIRRTPKWAPWATVVVGMFVSWSVVKIFTPEFVGSWFGMDELTRREAGEMRTMITIAAHLVFTAGFFCLSTLFYKEETDTHKETTAEFFKDVDTECVAEEGQDIVDRMQRAKLGTLVIYMAAGLTLMVLIPNPLWGRLLFLACAASVFAVGYGLKKSAKLDTQLSKVAATTTQ
protein production: failed

MTENTNFKSGYSEVNGLKMYYEIHGEGKPLVLIHGGGSTIKTSFGNILPLLLKSRQIIVMELQAHGHTGDRETDLTFEQDADDVAKLLENLQITKADFLGFSNGGHTTIEIALRHKKIVDKILLASAFYKRDAVVPEFWDGFDSATLEMMPKVLQEGYLKANDDEKGLLNMFKKDVQKMKDFKGWTDEQMKSITAKTLIINGNNDVGSIEHAVEMYRILPNCELAILPGGHGTYLGAIESLPNGEWTMKYVAELIEEFFDKH
protein production: failed

MSDFLQTTHLIIILCFLQQFLCTRMDIVIWLTCTTVPLSRRGRIGLGGSVILHVSDIHCSLRRLEDIISSLPVKPSTVAATGDFECEKAAVAIVEWSRREGVPLVAVTGNLDHAGVRRVLRSAGVLMDGRVDRVGGLVFGGVGGMDPRTSMEMLLRSLESSGLTVDVLLTHHPPHGVLDTTFAGVRAGLHDLRSLVDSLKPRAHLFGHIHESPGIESIGGTVFVNPGPAYEGRYALVRILGSVVKAELYTA
protein production: failed

MDVLIFNSWHWWTHTSGLQPWDYMREGNQLYKDMNRLVAYYKGLNTWARWINNNIVPSRTQVFFQGVSPVHYDGREWNEPLKSCNGQTQPFMGQRYPGGLPLGWVVVNKVLSRIRKPVHLLDLTTLSEYRKDAHPSLYNGISKDLDCSHWCLPGLPDTWNLLLYSSLTS
protein production: failed

MPFGYGLSYGTDFSQEIVSTEQNEDSVTLKVHAANNGTKAGKDVVQVYYNPPYTDFDAKNSIEKSTVNLIAFEKTDDIQPGAAQDITVTVTKEDMASYSYAHENSDGTKGAYLLEQGDYALSINKTAHEEYQSVTVNVPQTIWYDNDNPRQSDKDGQAILDDQGDPTNEPANGDTFKAASNLFQDMTDHMSKTSQLTRANGALSNTATFPTKEEMADISAAFNAKTDDEGRLILQQMDLDTDTTLGNTAGSKVYTTEKPTSNADNGLTLSDLRGVDFNDTKWDQLLDQLEWPSRMPE
protein production: failed

MRYLADHDDLTGLHNRRALLQHLDQRLAPGQPGPVAALFLDLDRLKAINDYLGHAAGDQFIHVFAQRIGDALVGESLIARLGGDEFVLIPASPMSADAAQPLAERLRDQLKDHVAIGGEVLTRTVSIGVASGTPGQHTLEHHHHHH
protein production: not failed

MRVNILMSTYNGEKFVADQIESIQKQTYTDWNLIIRDDGSSDRTCEIVDDFVSKDNRIKLIRAENVGVIKSFHELVTDSNNADFYFFADQDDYWLPEKLSVMLEETKKHDNSKPVMYYTDLKVTDRNLNVTSESMIRGQSDHANTKLVQELTENTVTGGASMINHELAQLWQSTNDIIMHDWYLAIVAAALGELVYIDQPTHLYRQHDSNVLGARTLSKRIKKWIHPNLWFEKYWWLITASQKQAQKLLTENLSLMSEDDKALVSDYVNILKQPKAERRQILDRYNLRKNKNYHTSIFRTLIITKFAYKGKKTNEFLQP
protein production: failed

MMNYNTPKVSIVVPSLNSISYIRECIDSILNQTLKDIEILCIDANSTDGTLEVLKNYEKKDKRLRVIISDKKSYGYQMNLGIKEAKGEYLGIVESDDYIKTNMYERLYEIAKKNDCEVVKGDFYILESNKGKYSKITPIDFLYNQIISFKTHPNIFNFQSINPIGIYRLDLLRTNQIKLNETPGASYQDNGLWFQIFALAKSIYFINEAFYMLRRDNPNSSVKSKEKVYCACEEYDFIRDFLKKHPDLEKTLAPICALHRFGNYMFTLERIDERYKLDFLKRFSQDFRKILKDKELDENLFGDGDMKIIYSIVENPENYYFLYMGYCNDMFGKLYFGASERIKWQLSYRIGKLLIDLKNPVQILKFPFKLFLEIKQFKFEQKIYKTTIKFYPNLQLPPLEEYSDYEQALKTKKHLSYILGKSFINNPILFIFKIKKIYKQYKKDISSSKKNIKELSDYDFLLNRHKQIFDYTPDFKCPVTFNEKLIYRILYDRSCIYSFLADKIKMRFYVASALSDNHEYSWDKIDILNEKSILFNNIDDLQDKIFETNKCKYLPKIYGIYKNIYDINFNELPNSFVLKTNHDCGGYVIVENKQEFLRDTVVFSNAMKKLKKHLEWNYYSVFREWHYKDIEPRVFAEELLLGENKKPADTYKFHIFDKENLSNNFIQVTTDRFDNYQRAMFDLSWNLAPFNFMYDNKNVTMIPKKPNLLDSMINISLILAKPFDYVRVDLYQFDKKIYIGELTFTHGAAGEKVIPKEWDKKLGDLWRLKRLDNASK
protein production: failed

MLNATAFCLAYAGFAALSLGMDRHYEDVFDRALPRRRRLALRSLEWLGLALSLWASAGAWGWNYGTVEWIGILSLAGLLLIWLLTFWPRAALGAGGACALAAPVLALL
protein production: failed

MAQPLFSLDGQSLITPQSVSNKFPSPHNHNETDRLRIAEAEFAVVINIAVQRFAAGKNLPDAVRWLIGQLHDIRQKFGAAVWQKIIPIIQAHPSATILQQCPFTRWSFEKPRGYSGDAGLIDFIYGHPAVAEEVARSTPLGLNIFEYTINAPGPVAVRERRDTLTRYVDETAVRTGSDTEILAIAAGHLREAEASKALAEGRLKRWVALDQDPESIGSISSQFHGTSVQPINGSVRGLLARKHQIGTFDLIYAAGLYDYLTDKVAIRLTQICMEMLKPGGVFLFANFSDEMADDGYMESYMNWELLQRSEADMWRITNAGATQNAVDKTVWFGANRNIIYSTIRKRS
protein production: failed

MSAEVETSEGVDESEKKNSGALEKENQMRMADLSELLKEGTKEAHDRAENTQFVKDFLKGNIKKELFKLATTALYFTYSALEEEMERNKDHPAFAPLYFPMELHRKEALTKDMEYFFGENWEEQVQCPKAAQKYVERIHYIGQNEPELLVAHAYTRYMGDLSGGQVLKKVAQRALKLPSTGEGTQFYLFENVDNAQQFKQLYRARMNALDLNMKTKERIVEEANKAFEYNMQIFNELDQAGSTLARETLEDGFPVHDGKGDMRKCPFYAAEQDKGALEGSSCPFRTAM
protein production: not failed

DMLLVDEMKRGMAQGNASGKHLIILHTKGSHFNYTQRYPRSFAQWKPECVGVDNKCSKAELINSYDNSVTYVDHFIVSVLDQLRDKKAIVFYAADHGESINEREHLHGTPRKMAPPEQFRVPMMVWMSDKYLENPDHAAAFAHLQQQAAMKVPRRHVELYDTIMGCLGYTSPDGGINENNNWCRWKK
protein production: failed

MLVLILLSSSLAIFAIINLSYSLGDAKAINASGSLRMQSYRLMFYANSGSEAAQEKITEFENTLHSEALHPSKSWLSPKKIAAQYQLVIDKWLVMKYYIEQENSRDYAASLKDFVDTIDLLVLEMEHHAAFKLRLLAASQIFGLGLMLSIAFLAVRFTKRKVVVPLQQLMESANTISKGNFEIEMPETEYIELTALTDALQKTARELATLYGNLESQVAEKTLALTRANNELAFLYDTLLTLNAKKLDYKALKAALNQLKDYESIDYLRLIIQYPEQELEMIEANGGWPESADNSTRFPLQFEQANLGYLELISAQDINTPLFKNFAIMLTRSIVIHNATEQRQQLALMEERGVIARELHDSLGQVLSFLKIQISLLRKNLDHSCRSPAVEVQLTEINEGVSTAYVQLRELLSTFRLTIKEPNLKNAMEAMLEQLRANTDIKIHLDYKLSPQWLEAKQHIHILQITREATLNAIKHANASHINIRCYKDDRGMVNISVSDNGVGIGHIKERDQHFGIGIMHERASKLDGEVVFSSNDTHTNSTATTEQRHQENPDSPLESHNTSNLSQGTIVTLIFPSQQEPTHG
protein production: failed
